Laboratory results reported in the Immune Epitope Database (IEDB).

What was measured:
[1] = molecular target: HLA-A*02:01; assay: IEDB peptide-MHC binding, purified MHC/competitive/radioactivity; ≥ and ≤ were set here for values at or beyond the usual limits of such assays
[2] = molecular target: HLA-A*02:01; assay: IEDB peptide-MHC binding, purified MHC/direct/fluorescence; filed as Kd, often an IC50 or EC50 that approximates it; ≥ and ≤ were set here for values at or beyond the usual limits of such assays
[3] = molecular target: HLA-A*02:03; assay: as above
[4] = molecular target: HLA-A*02:11; assay: as above
[5] = molecular target: HLA-A*02:12; assay: as above
[6] = molecular target: HLA-A*02:16; assay: as above
[7] = molecular target: HLA-A*02:19; assay: as above
[8] = molecular target: HLA-A*03:01; assay: as above
[9] = molecular target: HLA-A*24:03; assay: as above
[10] = molecular target: HLA-A*68:02; assay: as above; conditions: source organism: Salmonella enterica subsp. enterica serovar Virchow
[11] = molecular target: HLA-A*69:01; assay: as above
[12] = molecular target: HLA-B*15:17; assay: as above
[13] = molecular target: HLA-B*27:03; assay: as above
[14] = molecular target: HLA-B*39:01; assay: as above
[15] = molecular target: HLA-B*46:01; assay: as above; conditions: source organism: Salmonella enterica subsp. enterica serovar Virchow
[16] = molecular target: HLA-B*51:01; assay: as above
[17] = molecular target: HLA-A*01:01; assay: as above
[18] = molecular target: HLA-A*11:01; assay: as above
[19] = molecular target: HLA-A*26:01; assay: as above
[20] = molecular target: HLA-A*31:01; assay: as above
[21] = molecular target: HLA-B*07:02; assay: as above
[22] = molecular target: HLA-B*08:01; assay: as above
[23] = molecular target: HLA-B*15:01; assay: as above
[24] = molecular target: HLA-B*27:05; assay: as above
[25] = molecular target: HLA-B*35:01; assay: as above; conditions: source organism: Vibrio cholerae
[26] = molecular target: HLA-B*40:01; assay: as above
[27] = molecular target: HLA-B*44:02; assay: as above
[28] = molecular target: HLA-B*58:01; assay: as above
[29] = molecular target: HLA-A*30:01; assay: as above
[30] = molecular target: HLA-C*07:02; assay: as above
[31] = molecular target: HLA-B*51:01; assay: IEDB peptide-MHC binding, purified MHC/competitive/fluorescence; filed as Kd, often an IC50 or EC50 that approximates it; ≥ and ≤ were set here for values at or beyond the usual limits of such assays; conditions: source organism: Shigella boydii Sb227
[32] = molecular target: HLA-A*29:02; assay: IEDB peptide-MHC binding, purified MHC/direct/fluorescence; filed as Kd, often an IC50 or EC50 that approximates it; ≥ and ≤ were set here for values at or beyond the usual limits of such assays; conditions: source organism: Encephalitozoon cuniculi GB-M1
[33] = molecular target: HLA-B*18:01; assay: as above; conditions: source organism: Encephalitozoon cuniculi GB-M1
[34] = molecular target: HLA-B*57:01; assay: as above; conditions: source organism: Encephalitozoon cuniculi GB-M1
[35] = molecular target: HLA-B*15:42; assay: IEDB peptide-MHC binding, purified MHC/competitive/fluorescence; filed as Kd, often an IC50 or EC50 that approximates it; ≥ and ≤ were set here for values at or beyond the usual limits of such assays; conditions: source organism: Encephalitozoon cuniculi GB-M1
[36] = molecular target: HLA-B*45:06; assay: as above; conditions: source organism: Encephalitozoon cuniculi GB-M1
[37] = molecular target: HLA-B*83:01; assay: as above; conditions: source organism: Encephalitozoon cuniculi GB-M1
[38] = molecular target: HLA-B*48:01; assay: as above; conditions: source organism: Giardia lamblia ATCC 50803
[39] = molecular target: HLA-C*06:02; assay: IEDB peptide-MHC binding, purified MHC/direct/fluorescence; filed as Kd, often an IC50 or EC50 that approximates it; ≥ and ≤ were set here for values at or beyond the usual limits of such assays; conditions: source organism: Mus musculus
[40] = molecular target: HLA-C*15:02; assay: as above
[41] = molecular target: HLA-C*14:02; assay: as above
[42] = source organism: Salmonella enterica subsp. enterica serovar Virchow
[43] = source organism: Vibrio cholerae
[44] = source organism: Brucella abortus
[45] = source organism: Brucella melitensis
[46] = source organism: Encephalitozoon cuniculi GB-M1
[47] = source organism: Salmonella enterica
[48] = source organism: Salmonella enterica subsp. enterica serovar Choleraesuis str. SC-B67
[49] = source organism: Vaccinia virus Copenhagen
[50] = source organism: Salmonella enterica subsp. enterica serovar Paratyphi B str. SPB7
[51] = source organism: Yersinia pestis

In the case of ALYIPPYEL, the IC50 ([1]; source organism: Rhinovirus A) is reported as 0.586 µM.

CTWPEASRY was tested, and the Kd [2, 42] was ≥ 20 µM, the Kd [3, 42] was ≥ 20 µM and the Kd [4, 42] was ≥ 20 µM. For the same sequence, the Kd [5, 42] was ≥ 20 µM, the Kd [6, 42] was ≥ 20 µM and the Kd [7, 42] was ≥ 20 µM. For the same sequence, the Kd [8, 42] was ≥ 20 µM, the Kd [9, 42] was ≥ 20 µM and the Kd [10] was ≥ 20 µM. The Kd [11, 42] was ≥ 20 µM, the Kd [12, 42] was 0.026 µM and the Kd [13, 42] was ≥ 20 µM. For the same sequence, the Kd [14, 42] was ≥ 20 µM, the Kd [15] was ≥ 20 µM and the Kd [16, 42] was ≥ 20 µM.

EIFPNIKIY was tested, and the Kd [17, 43] was ≥ 20 µM, the Kd [2, 43] was ≥ 20 µM and the Kd [8, 43] was ≥ 20 µM. The Kd [18, 43] was ≥ 20 µM, the Kd [19, 43] was 0.0738 µM and the Kd [20, 43] was ≥ 20 µM. The Kd [11, 43] was ≥ 20 µM, the Kd [21, 43] was ≥ 20 µM and the Kd [22, 43] was ≥ 20 µM. For the same sequence, the Kd [23, 43] was 0.465 µM, the Kd [24, 43] was ≥ 20 µM and the Kd [25] was 0.164 µM. The Kd [26, 43] was ≥ 20 µM, the Kd [27, 43] was ≥ 20 µM and the Kd [28, 43] was ≥ 20 µM.

In the case of EKPPVRPIF, the Kd [17, 44] is reported as ≥ 20 µM, the Kd [2, 44] is reported as ≥ 20 µM and the Kd [8, 44] is reported as ≥ 20 µM. The Kd [19, 44] was ≥ 20 µM, the Kd [29, 45] was 8.74 µM and the Kd [20, 44] was ≥ 20 µM. The Kd [11, 44] was ≥ 20 µM, the Kd [21, 44] was ≥ 20 µM and the Kd [22, 45] was 5.61 µM. The Kd [23, 44] was ≥ 20 µM, the Kd [24, 44] was ≥ 20 µM and the Kd [26, 44] was ≥ 20 µM. The Kd [27, 44] was ≥ 20 µM and the Kd [28, 44] was ≥ 20 µM.

For FLCKQYLNL, the IC50 ([1]; source organism: Hepatitis B virus) was 0.029 µM.

FPAWFAWIF was tested, and the Kd ([30]; source organism: Shigella boydii Sb227) was ≥ 20 µM and the Kd [31] was ≥ 20 µM.

With FSFFMNENF the Kd [2, 46] was ≥ 20 µM, the Kd [3, 46] was ≥ 20 µM and the Kd [4, 46] was ≥ 20 µM. For the same sequence, the Kd [5, 46] was ≥ 20 µM, the Kd [6, 46] was ≥ 20 µM and the Kd [7, 46] was ≥ 20 µM. For the same sequence, the Kd [8, 46] was ≥ 20 µM, the Kd [9, 46] was ≥ 20 µM and the Kd [19, 46] was ≥ 20 µM. The Kd [32] was ≥ 20 µM, the Kd [12, 46] was ≤ 0.001 µM and the Kd [33] was ≥ 20 µM. For the same sequence, the Kd [13, 46] was ≥ 20 µM, the Kd [14, 46] was ≥ 20 µM and the Kd [16, 46] was ≥ 20 µM. The Kd [34] was ≥ 20 µM, the Kd [35] was ≥ 5 µM and the Kd [36] was ≥ 5 µM. The Kd [37] was ≥ 5 µM.

Sequence GQPHSLASL has a Kd [38] of 0.149 µM.

For LWFRNHFVF, the Kd [39] was ≥ 20 µM and the Kd ([40]; source organism: Mus musculus) was ≥ 20 µM.

RQASIELPSM gave an IC50 ([1]; source organism: Homo sapiens) of 1.77 µM.

Work on RTAKVRAFH yielded a Kd [8, 47] of 0.241 µM, a Kd [18, 48] of 0.069 µM and a Kd [29, 48] of 0.032 µM. For the same sequence, the Kd [20, 47] was 0.15 µM.

Sequence RYWYFAAEL has a Kd [30, 49] of 1.01 µM and a Kd [41, 49] of 0.015 µM.

In the case of SLYNLVAVL, the IC50 ([1]; source organism: Human immunodeficiency virus 1) is reported as 0.027 µM.

SVFTGLLPF gave a Kd [30, 50] of 0.507 µM, a Kd [41, 50] of 0.56 µM and a Kd [40, 50] of 12.3 µM.

Sequence VLYRYGSFSV has an IC50 ([1]; source organism: Homo sapiens) of 0.0132 µM.

For VPRVHNQPQ, the Kd [17, 51] was ≥ 20 µM, the Kd [2, 51] was ≥ 20 µM and the Kd [8, 51] was ≥ 20 µM. The Kd [18, 51] was ≥ 20 µM, the Kd [9, 51] was ≥ 20 µM and the Kd [19, 51] was ≥ 20 µM. For the same sequence, the Kd [29, 51] was ≥ 20 µM, the Kd [20, 51] was ≥ 20 µM and the Kd [11, 51] was ≥ 20 µM. For the same sequence, the Kd [21, 51] was 0.0437 µM, the Kd [22, 51] was 5.69 µM and the Kd [23, 51] was ≥ 20 µM. The Kd [24, 51] was ≥ 20 µM, the Kd [26, 51] was ≥ 20 µM and the Kd [27, 51] was ≥ 20 µM. For the same sequence, the Kd [28, 51] was ≥ 20 µM.
